Results on 8 molecules are retold here after US20180037904A1.

Data set [1] has as its target Rubisco from wheat (wheat) (UniProt P11383). The experiment in a line: cell-based or functional assay.
The target of data set [2] is Rubisco (Ribulose-1,5-bis-phosphate carboxylase/oxygenase) purified from Oryza sativa leaves (Oryza sativa) (UniProt P0C512). The experiment in a line: cell-based or functional assay.
Data set [3] concerns the target Rubisco (Ribulose-1,5-bis-phosphate carboxylase/oxygenase) purified from Oryza sativa leaves, P0C512.

In turn, “beta isoform of RCA extracted from wheat leaves (0.2 M KCl anion-exchange fraction) (enzyme)” had an activation of wheat Rubisco by leaf-extracted beta isoform at less than 34° C., relative to the rice RCA isoforms in data set [1] above 2 fold.

“leaf-extracted RCA from Oryza sativa (partially purified, alpha and beta isoforms) (from UniProt P93431 49-466; P93431 49-428) (enzyme)”: the reduction in fraction of Rubisco activated at comparable temperatures in data set [2] turned out to be 80%.

B1: recombinant Oryza sativa Rubisco activase (RCA), beta (short) isoform (protein)
chain: MAKELDEGKQTDQDRWKGLAYDISDDQQDITRGKGFVDSLFQAPTGDGTHEAVLSSYEYLSQGLRTYDFDNTMGGFYIAPAFMDKLVVHISKNFMTLPNIKVPLILGIWGGKGQGKSFQCELVFAKMGINPIMMSAGELESGNAGEPAKLIRQRYREAADIIKKGKMCCLFINDLDAGAGRMGGTTQYTVNNQMVNATLMNIADNPTNVQLPGMYNKEDNPRVPIIVTGNDFSTLYAPLIRDGRMEKFYWAPTRDDRVGVCKGIFRTDNVPDEDIVKIVDSFPGQSIDFFGALRARVYDDEVRKWVSDTGVENIGKRLVNSREGPPEFEQPKMTIEKLMEYGYMLVKEQENVKRVQLAEQYLSEAALGDANSDAMKTGSFYGSAPSS
Consider B1, for which the “concentration-dependent specific activity of ATP hydrolysis” value is on record as “specific activity of ATP hydrolysis falls at low RCA concentrations” and the “temperature stability of ATP hydrolysis” value was “both being heat stable, not losing activity until 40 °C”. In data set [3], the “Rubisco activation activity of recombinant RCA at 30 and 36° C.” value was “the β isoform of RCAOs has higher activity than RCAOa”.

B2: leaf-extracted RCA from Oryza sativa (partially purified, alpha and beta isoforms) (protein)
chain 1: KELDEGKQTDQDRWKGLAYDISDDQQDITRGKGFVDSLFQAPTGDGTHEAVLSSYEYLSQGLRTYDFDNTMGGFYIAPAFMDKLVVHISKNFMTLPNIKVPLILGIWGGKGQGKSFQCELVFAKMGINPIMMSAGELESGNAGEPAKLIRQRYREAADIIKKGKMCCLFINDLDAGAGRMGGTTQYTVNNQMVNATLMNIADNPTNVQLPGMYNKEDNPRVPIIVTGNDFSTLYAPLIRDGRMEKFYWAPTRDDRVGVCKGIFRTDNVPDEDIVKIVDSFPGQSIDFFGALRARVYDDEVRKWVSDTGVENIGKRLVNSREGPPEFEQPKMTIEKLMEYGYMLVKEQENVKRVQLAEQYLSEAALGDANSDAMKTGSFYGQGAQQAGNLPVPEGCTDPVAKNFDPTARSDDGSCLYTF
chain 2: KELDEGKQTDQDRWKGLAYDISDDQQDITRGKGFVDSLFQAPTGDGTHEAVLSSYEYLSQGLRTYDFDNTMGGFYIAPAFMDKLVVHISKNFMTLPNIKVPLILGIWGGKGQGKSFQCELVFAKMGINPIMMSAGELESGNAGEPAKLIRQRYREAADIIKKGKMCCLFINDLDAGAGRMGGTTQYTVNNQMVNATLMNIADNPTNVQLPGMYNKEDNPRVPIIVTGNDFSTLYAPLIRDGRMEKFYWAPTRDDRVGVCKGIFRTDNVPDEDIVKIVDSFPGQSIDFFGALRARVYDDEVRKWVSDTGVENIGKRLVNSREGPPEFEQPKMTIEKLMEYGYMLVKEQENVKRVQLAEQYLSEAALGDANSDAMKTGSFYGSAPSS
As for B2, in data set [3], the “peak in RCA activation performance (temperature of maximal Rubisco activation)” value turned out to be 29.9±0.5 °C for O. sativa.

B3: recombinant Oryza sativa Rubisco activase (RCA), alpha (long) isoform (protein)
chain: MAKELDEGKQTDQDRWKGLAYDISDDQQDITRGKGFVDSLFQAPTGDGTHEAVLSSYEYLSQGLRTYDFDNTMGGFYIAPAFMDKLVVHISKNFMTLPNIKVPLILGIWGGKGQGKSFQCELVFAKMGINPIMMSAGELESGNAGEPAKLIRQRYREAADIIKKGKMCCLFINDLDAGAGRMGGTTQYTVNNQMVNATLMNIADNPTNVQLPGMYNKEDNPRVPIIVTGNDFSTLYAPLIRDGRMEKFYWAPTRDDRVGVCKGIFRTDNVPDEDIVKIVDSFPGQSIDFFGALRARVYDDEVRKWVSDTGVENIGKRLVNSREGPPEFEQPKMTIEKLMEYGYMLVKEQENVKRVQLAEQYLSEAALGDANSDAMKTGSFYGQGAQQAGNLPVPEGCTDPVAKNFDPTARSDDGSCLYTF
Turning to B3, the “concentration-dependent specific activity of ATP hydrolysis” value was “specific activity of ATP hydrolysis falls at low RCA concentrations” and the “temperature stability of ATP hydrolysis” value was “both being heat stable, not losing activity until 40 °C”. In data set [3], the “Rubisco activation activity of recombinant RCA at 30 and 36° C.” value was “there is little difference in activity of the α isoform between the species”.

B4: leaf-extracted RCA from Oryza australiensis (partially purified, alpha and beta isoforms) (protein)
chain 1: KELDEDKQTDQDKWKGLAYDISDDQQDITRGKGLVDSLFQAPMGDGTHEAVLSSYEYLSQGLKMLDNTMGGFYIAPAFMDKLVVHISKNFMALPNIKVPLILGIWGGKGQGKSFQCELVFSKMGINPIMMSAGELESGNAGEPAKLIRQRYREAADIIKKGKMCCLFINDLDAGAGRMGGTTQYTVNNQMVNATLMNIADNPTNVQLPGMYNKEDNPRVPIIVTGNDFSTLYAPLIRDGRMEKFYWAPTRDDRVGVCKGIFRTDNVPDEDIVKIVDSFPGQSIDFFGALRARVYDDEVRKWVSDTGVENIGKKLVNSREGPPEFEQPKMTIDKLMEYGHMLVREQENVKRVQLADKYLSEAALGDANSDAMKTGSFYGQGAQQGGNLPVPEGCTDPVAKNFDPTARSDDGSCLYTF
chain 2: KELDEDKQTDQDKWKGLAYDISDDQQDITRGKGLVDSLFQAPMGDGTHEAVLSSYEYLSQGLKMLDNTMGGFYIAPAFMDKLVVHISKNFMALPNIKVPLILGIWGGKGQGKSFQCELVFSKMGINPIMMSAGELESGNAGEPAKLIRQRYREAADIIKKGKMCCLFINDLDAGAGRMGGTTQYTVNNQMVNATLMNIADNPTNVQLPGMYNKEDNPRVPIIVTGNDFSTLYAPLIRDGRMEKFYWAPTRDDRVGVCKGIFRTDNVPDEDIVKIVDSFPGQSIDFFGALRARVYDDEVRKWVSDTGVENIGKKLVNSREGPPEFEQPKMTIDKLMEYGHMLVREQENVKRVQLADKYLSEAALGDANSDAMKTGSFYGAAPSS
For B4, in data set [3], the “absolute rate of Rubisco activation at 42° C. relative to Os RCA” value was “at 42 °C Oa had an absolute rate of activity four-times that of Os”; the “drop in Rubisco activation activity at 42° C. relative to 30° C., RCA at 0.96 mg·mL^-1” value was “close to a 50% drop in activity at 42 °C relative to 30 °C”; the “fall in Rubisco activation activity at 42° C. relative to 30° C., RCA at 0.24 and 0.49 mg·mL^-1” value was “less than a 20% fall at concentrations of 0.24 and 0.49 mg·mL^-1”; the “peak in RCA activation performance (temperature of maximal Rubisco activation)” value is 33.0±0.3 °C for O. australiensis.

B5: recombinant Oryza australiensis Rubisco activase (RCA), alpha (long) isoform (protein)
chain: MAKELDEDKQTDQDKWKGLAYDISDDQQDITRGKGLVDSLFQAPMGDGTHEAVLSSYEYLSQGLKMLDNTMGGFYIAPAFMDKLVVHISKNFMALPNIKVPLILGIWGGKGQGKSFQCELVFSKMGINPIMMSAGELESGNAGEPAKLIRQRYREAADIIKKGKMCCLFINDLDAGAGRMGGTTQYTVNNQMVNATLMNIADNPTNVQLPGMYNKEDNPRVPIIVTGNDFSTLYAPLIRDGRMEKFYWAPTRDDRVGVCKGIFRTDNVPDEDIVKIVDSFPGQSIDFFGALRARVYDDEVRKWVSDTGVENIGKKLVNSREGPPEFEQPKMTIDKLMEYGHMLVREQENVKRVQLADKYLSEAALGDANSDAMKTGSFYGQGAQQGGNLPVPEGCTDPVAKNFDPTARSDDGSCLYTF
On to B5, for which the “concentration-dependent specific activity of ATP hydrolysis” value is recorded as “specific activity of ATP hydrolysis falls at low RCA concentrations” and the “temperature stability of ATP hydrolysis” value was “both being heat stable, not losing activity until 40 °C”. Moreover, the “Rubisco activation activity of recombinant RCA at 30 and 36° C.” value in data set [3] is listed as “there is little difference in activity of the α isoform between the species”.

B6: recombinant Oryza australiensis Rubisco activase (RCA), beta (short) isoform (protein)
chain: MAKELDEDKQTDQDKWKGLAYDISDDQQDITRGKGLVDSLFQAPMGDGTHEAVLSSYEYLSQGLKMLDNTMGGFYIAPAFMDKLVVHISKNFMALPNIKVPLILGIWGGKGQGKSFQCELVFSKMGINPIMMSAGELESGNAGEPAKLIRQRYREAADIIKKGKMCCLFINDLDAGAGRMGGTTQYTVNNQMVNATLMNIADNPTNVQLPGMYNKEDNPRVPIIVTGNDFSTLYAPLIRDGRMEKFYWAPTRDDRVGVCKGIFRTDNVPDEDIVKIVDSFPGQSIDFFGALRARVYDDEVRKWVSDTGVENIGKKLVNSREGPPEFEQPKMTIDKLMEYGHMLVREQENVKRVQLADKYLSEAALGDANSDAMKTGSFYGAAPSS
For B6, the “concentration-dependent specific activity of ATP hydrolysis” value was “specific activity of ATP hydrolysis falls at low RCA concentrations” and the “temperature stability of ATP hydrolysis” value was “both being heat stable, not losing activity until 40 °C”. In addition, in data set [3], the “Rubisco activation activity of recombinant RCA at 30 and 36° C.” value is listed as “the β isoform of RCAOs has higher activity than RCAOa”.
